Data from patent US11278600B2, “Human alpha-galactosidase variants” (Codexis, Inc., priority 2014, dated 2022).
Where a chain is given by its changes, count along the chain named.

Assays:
Assay type in all cases: biochemical
[1] = HTP-analysis of supernatants pretreated with acid (MUGal hydrolysis); details: challenge at pH 4.2; activity of the variant/activity of WT GLA (SEQ ID NO: 5); yeast supernatant
How it was run: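 Supernatants from INVSc1 yeast secreting GLA variants were challenged at 37° C. for 1-3 h in McIlvaine buffer at pH 3.3-4.3. Residual activity was then measured on 4 mM MUGal substrate stock at pH 4.8 with citrate buffer pH 4.3, over 30-180 min at 37° C. Reactions were quenched with sodium carbonate and read by fluorescence (Ex 355/Em 448 nm).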

[2] = HTP-analysis of yeast culture supernatants, no challenge (MUGal hydrolysis); details: activity of the variant/activity of WT GLA (SEQ ID NO: 5), yeast supernatant
How it was run: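 Activity read as 4-methylumbelliferyl α-D-galactopyranoside hydrolysis: fluorescence (355/448 nm) after sodium carbonate stop, following 30-180 min at 37° C with 2 mM MUGal stock at pH 4.6–4.8. Enzyme source is unchallenged culture supernatant of INVSc1 yeast expressing GLA variants, grown 66-84 h at 30° C.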

[3] = HTP-analysis of supernatants pretreated with base (MUGal hydrolysis); details: challenge at pH 7.1; activity of the variant/activity of WT GLA (SEQ ID NO: 5); yeast supernatant
How it was run: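 Fluorescence of released 4-MU (Ex 355 nm, Em 448 nm) after carbonate quench reports MUGal hydrolysis by GLA variants secreted from INVSc1 yeast. Before the acidic (pH 4.3-4.8) 30-180 min reaction at 37° C, supernatants had been pre-incubated at pH 7.0-9.7 for 1-18 h at 37° C.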

B1: 101 (protein)
chain: LDNGLARTPTMGWLHWERFMCNLDCQEEPDSCISEKLFMEMAELMVSEGWKDAGYEYLCIDDCWMAPQRDSEGRLQADPQRFPHGIRQLANYVHSKGLKLGIYADVGNKTCAGFPGSFGYYDIDAQTFADWGVDLLKFDGCYCDSLENLADGYKHMSLALNRTGRSIVYSCEWPLYMWPFQKPNYTEIRQYCNHWRNFADIDDSWKSIKSILDWTSFNQERIVDVAGPGGWNDPDMLVIGNFGLSWNQQVTQMALWAIMAAPLFMSNDLRHISPQAKALLQDKDVIAINQDPLGKQGYQLRQGDNFEVWERPLSGDAWAVAMINRQEIGGPRSYTIAVASLGKGVACNPACFITQLLPVKRKLGFYEWTSRLRSHINPTGTVLLQLENTMQMSKDLLL
modifications: Synthetic Polypeptide sequence of Variant No. 101 of mature Human GLA
Relative Activity of GLA Variants After Challenge at pH 4.2 [1]: +++ (+++ = >2.5 relative activity over WT GLA (SEQ ID NO: 5)) | Relative Activity of GLA Variants After No Challenge (NC) [2]: +++ (+++ = >2.5 relative activity over WT GLA (SEQ ID NO: 5)) | Relative Activity of GLA Variants After Challenge at pH 7.1 [3]: +++ (+++ = >2.5 relative activity over WT GLA (SEQ ID NO: 5))

B2: 102 (protein)
chain: B1 chain with D316E
modifications: Synthetic Polypeptide sequence of Variant No. 102 of mature Human GLA
Relative Activity of GLA Variants After Challenge at pH 4.2 [1]: +++ (+++ = >2.5 relative activity over WT GLA (SEQ ID NO: 5)) | Relative Activity of GLA Variants After No Challenge (NC) [2]: +++ (+++ = >2.5 relative activity over WT GLA (SEQ ID NO: 5)) | Relative Activity of GLA Variants After Challenge at pH 7.1 [3]: +++ (+++ = >2.5 relative activity over WT GLA (SEQ ID NO: 5))

B3: 105 (protein)
chain: B1 chain with D316L, K394A
modifications: Synthetic Polypeptide sequence of Variant No. 105 of mature Human GLA
Relative Activity of GLA Variants After Challenge at pH 4.2 [1]: ++ (++ = >1.5 to 2.5 relative activity over WT GLA (SEQ ID NO: 5)) | Relative Activity of GLA Variants After No Challenge (NC) [2]: +++ (+++ = >2.5 relative activity over WT GLA (SEQ ID NO: 5)) | Relative Activity of GLA Variants After Challenge at pH 7.1 [3]: ++ (++ = >1.5 to 2.5 relative activity over WT GLA (SEQ ID NO: 5))

B4: 103 (protein)
chain: B1 chain with D316L, L384F
modifications: Synthetic Polypeptide sequence of Variant No. 103 of mature Human GLA
Relative Activity of GLA Variants After Challenge at pH 4.2 [1]: ++ (++ = >1.5 to 2.5 relative activity over WT GLA (SEQ ID NO: 5)) | Relative Activity of GLA Variants After No Challenge (NC) [2]: ++ (++ = >1.5 to 2.5 relative activity over WT GLA (SEQ ID NO: 5)) | Relative Activity of GLA Variants After Challenge at pH 7.1 [3]: ++ (++ = >1.5 to 2.5 relative activity over WT GLA (SEQ ID NO: 5))

B5: 104 (protein)
chain: B1 chain with D316L, L386V
modifications: Synthetic Polypeptide sequence of Variant No. 104 of mature Human GLA
Relative Activity of GLA Variants After Challenge at pH 4.2 [1]: ++ (++ = >1.5 to 2.5 relative activity over WT GLA (SEQ ID NO: 5)) | Relative Activity of GLA Variants After No Challenge (NC) [2]: ++ (++ = >1.5 to 2.5 relative activity over WT GLA (SEQ ID NO: 5)) | Relative Activity of GLA Variants After Challenge at pH 7.1 [3]: ++ (++ = >1.5 to 2.5 relative activity over WT GLA (SEQ ID NO: 5))

B6: 33 (protein)
chain: B1 chain with A199H, D316L, E367S
modifications: Synthetic Polypeptide sequence of Variant No. 33 of mature Human GLA
Relative Activity of GLA Variants After Challenge at pH 4.2 [1]: + (+ = 0.5 to 1.5 relative activity over WT GLA (SEQ ID NO: 5)) | Relative Activity of GLA Variants After No Challenge (NC) [2]: + (+ = 0.5 to 1.5 relative activity over WT GLA (SEQ ID NO: 5)) | Relative Activity of GLA Variants After Challenge at pH 7.1 [3]: + (+ = 0.5 to 1.5 relative activity over WT GLA (SEQ ID NO: 5))
